From patent publication US20040072240A1
Like-named read-outs stand apart in the source and are kept apart here.

Experiments:
[1] = molecular target: HLA A2.1 molecule (human); experiment: T2 cells, flow cytometry (BB7.2); complex dissociation
[2] = molecular target: HLA A2.1 molecule (human); experiment: T2 cells, flow cytometry (BB7.2); reference HIVpol 589
[3] = molecular target: HLA A2.1 molecule (human); experiment: T2 cells, flow cytometry; P1Y variant against its natural peptide
[4] = molecular target: HLA A2.1 molecule (human); experiment: T2 cells, flow cytometry (BB7.2); reference I9V
[5] = remark: other sources report otherwise

Row | Binder | DC50 [1] [h] | RA (relative affinity) [2] | DC50 Y1-DC50 WT [3] [h] | RA WT/RA Y1 [3] | also measured
1 | PLQPEQLQV (modifications not checked) [HER-2/neu 391] | 2 | > 70 | – | – | –
2 | FLSTLVHGV (modifications not checked) [mp 876] | > 6 | 1.2 | – | – | –
3 | AMLGTHTMEV (modifications not checked) [gp100 177] | > 6 | 0.5 | – | – | –
4 | MLLAVLYCL (modifications not checked) [Tyrosinase 1] | – | > 60 | – | – | –
5 | FLPWHRLFLL (modifications not checked) [Tyrosinase 207] | 2 | > 50 | – | – | –
6 | MLGTHTMEV (modifications not checked) [gp100 178] | – | 0.3 | – | – | –
7 | YLTGDENFTI (modifications not checked) [P1Y variant of Tyrosinase 224] | – | – | > 2 | > 5.1 | –
8 | DLQVNSLQTV (modifications not checked) [mhp 988] | < 2 | 28.6 | – | – | –
9 | LLDTGADDTV (modifications not checked) [pol79] | < 2 | – | – | – | RA (relative affinity) [4]: 10
10 | QLMPYGCLL (modifications not checked) [HER-2/neu 799] | – | 1 | – | – | –
11 | ILAKFLHWL (modifications not checked) [mhp 540] | > 6 | 0.3 | – | – | –
12 | ILATFLAWL (modifications not checked) [mp 530] | > 6 | 0.8 | – | – | –
13 | YLGTHTMEV (modifications not checked) [P1Y variant of gp100 178] | – | – | 2 | 0.8 | –
14 | YLTVILGVL (modifications not checked) [P1Y variant of Mart-1 32] | – | – | 2 | 16.2 | –
15 | YLMPYGCLL (modifications not checked) [P1Y variant of HER-2/neu 799] | – | – | > 2 | 3.9 | –
16 | YLVSEFSRM (modifications not checked) [P1Y variant of HER-2/neu 971] | – | – | 2 | 11.6 | –
17 | YLCRWGLLL (modifications not checked) [HER-2/neu 5Y1] | – | – | 0 | 1.1 | –
18 | VMAGVGSPYV (modifications not checked) [HER-2/neu 773] | 6 | 1.7 | – | – | –
19 | HLYQGCQVV (modifications not checked) [HER-2/neu 48] | > 8 | 1.7 | – | – | –
20 | YMLGTHTMEV (modifications not checked) [gp100 177Y1] | – | – | 2 | 0.6 | –
21 | YLIHHNTHL (modifications not checked) [HER-2/neu 466Y1] | 6 | 1.4 | > 4 | 3.3 | –
22 | LLDGTATLRL (modifications not checked) [gp100 457] | – | 1.6 | – | – | –
23 | YLEEITGYL (modifications not checked) [HER-2/neu 402Y1] | 4 | 3.7 | > 2 | 5.2 | –
24 | ILLVVVLGV (modifications not checked) [HER-2/neu 661] | – | > 60 | – | – | –
25 | ILTVILGVL (modifications not checked) [mart-1 32] | 4 | 21.1 | – | – | –
26 | YLLAVLYCL (modifications not checked) [P1Y variant of Tyrosinase 1] | – | – | > 2 | > 3.7 | –
27 | YMAGVGSPYV (modifications not checked) [P1Y variant of HER-2/neu 773] | – | – | 2 | 2 | –
28 | YLYQGCQVV (modifications not checked) [P1Y variant of HER-2/neu 48] | – | – | 0 | 3 | –

Row | Binder | DC50 [1] [h] | RA (relative affinity) [2] | DC50 Y1-DC50 WT [3] [h] | RA WT/RA Y1 [3] | also measured
29 | YLVPQQGFFC (modifications not checked) [HER-2/neu 1023] | 4 | 19.6 | – | – | –
30 | SLADTNSLAV (modifications not checked) [gp100 570] | – | 1 | – | – | –
31 | YLPWHRLFLL (modifications not checked) [P1Y variant of Tyrosinase 207] | – | – | > 4 | > 6.4 | –
32 | YLFFYRKSV (modifications not checked) [mhp 572Y1] | 5 | 2.2 | – | – | –
33 | YLVKSPNHV (modifications not checked) [P1Y variant of HER-2/neu 851] | – | – | 2 | 3 | –
34 | RLFFYRKSV (modifications not checked) [mhp 572] | < 2 | 25.3 | – | – | –
35 | YLQPEQLQV (modifications not checked) [HER-2/neu 391Y1] | 8 | 1.3 | > 6 | 55.5 | –
36 | PLTSIISAV (modifications not checked) [HER-2/neu 650] | < 2 | 1.4 | – | – | –
37 | YLQVNSLQTV (modifications not checked) [mhp 988Y1] | > 6 | 2.1 | – | – | –
38 | YIFGSLAFL (modifications not checked) [HER-2/neu 369Y1] | – | – | > 2 | 3.9 | –
39 | YLDGTATLRL (modifications not checked) [gp100 457Y1] | – | – | > 2 | 2.3 | –
40 | PLEEELPRL (modifications not checked) [HBVpol 594] | – | – | – | – | DC50 [1, 5]: < 2 h; RA (relative affinity) [2, 5]: 4.2
41 | YLYRYGSFSV (modifications not checked) [gp100 476Y1] | – | – | 2 | 4.2 | –
42 | LLGCAANWIL (modifications not checked) [HBVpol 765] | 4 | 2 | – | – | –
43 | TLEEITGYL (modifications not checked) [HER-2/neu 402] | < 2 | 19 | – | – | –
44 | FLFWLMDTYV (modifications not checked) [mp 534] | > 6 | 0.2 | – | – | –
45 | QLLRSFFHFL (modifications not checked) [mp 545] | > 6 | 1.8 | – | – | –
46 | ALCRWGLLL (modifications not checked) [HER-2/neu 5] | > 8 | – | – | – | –
47 | VLYRYGSFSV (modifications not checked) [gp100 476] | 6 | 10 | – | – | –
48 | ELVSEFSRM (modifications not checked) [HER-2/neu 971] | 2 | > 70 | – | – | –
49 | VLVKSPNHV (modifications not checked) [HER-2/neu 851] | 4 | 24 | – | – | –
50 | SLFDFFHFL (modifications not checked) [mp 797] | > 6 | 1.5 | – | – | –
51 | KLTPLCVSL (modifications not checked) [K9L] | > 6 | – | – | – | RA (relative affinity) [4]: 1.35
52 | KLTGDENFTI (modifications not checked) [Tyrosinase 224] | < 2 | > 50 | – | – | –
53 | YLADTNSLAV (modifications not checked) [gp100 570Y1] | – | – | > 2 | 3.4 | –
54 | YLLVVVLGV (modifications not checked) [HER-2/neu 661Y1] | – | – | 2 | > 1.5 | –
55 | ALIHHNTHL (modifications not checked) [HER-2/neu 466] | 2 | – | – | – | –
